The source of these data is patent publication US20190367616A1.

The target of assay [1] is human PD-1 expressed on CHO-S cells (human) (UniProt Q15116). In words: flow cytometry PD-L1 blocking assay on CHO-S cells transiently expressing human PD-1; non-specific control antibody; ligand R-PE PD-L1-Fc (16.4 nM final). (In general: In flow cytometry, cells or beads pass a laser one at a time.)
The target of assay [2] is cynomolgus PD-1 ECD (Acro Biosystems cat. no. PD1-05223) (cynomolgus) (UniProt B0LAJ3). In words: SPR, antibody on sensor, monomeric PD-1 ECD in solution. Background: In SPR one partner is held on a chip, and binding of the other changes the refractive index at the surface.
cynomolgus PD-1 ECD (Acro Biosystems cat. no. PD1-05223) (cynomolgus), sequence (B0LAJ3 entry or part of it limits assumed): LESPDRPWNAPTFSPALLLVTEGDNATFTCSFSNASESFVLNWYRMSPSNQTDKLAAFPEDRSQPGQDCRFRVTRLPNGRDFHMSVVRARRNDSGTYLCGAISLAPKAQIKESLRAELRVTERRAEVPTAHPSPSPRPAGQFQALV

pKd: −log10 of the molar value.

human PD-1 expressed on CHO-S cells (human), sequence (Q15116 25-288): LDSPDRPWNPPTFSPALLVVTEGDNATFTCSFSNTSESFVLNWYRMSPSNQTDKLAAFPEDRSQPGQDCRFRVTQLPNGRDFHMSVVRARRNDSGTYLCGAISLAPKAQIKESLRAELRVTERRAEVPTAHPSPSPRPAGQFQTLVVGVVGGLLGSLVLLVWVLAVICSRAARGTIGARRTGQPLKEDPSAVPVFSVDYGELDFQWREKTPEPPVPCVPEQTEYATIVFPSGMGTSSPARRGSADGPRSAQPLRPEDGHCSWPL

In assay [1], control mAb (antibody) yielded a % of cells hu IgG binding negative / PD-L1 binding negative (lower left quadrant) of 66.5%; a % of cells hu IgG binding negative / PD-L1 binding positive (lower right quadrant) of 32.6%; a % of cells hu IgG binding positive / PD-L1 binding negative (upper left quadrant, 'blocking') of 0.28%.

Broadly, the pKd is the negative decadic logarithm of the Kd, by convention in mol/L. Read a high pKd as a low Kd. For nivolumab analogue (antibody), in assay [2], the pKd was 8.82.

pembrolizumab/Keytruda (antibody) gave a pKd in assay [2] of 8.44.
